Experiment [1] concerns the target Pre10 proteasome subunit C-terminally fused with Fpr1 (strain Pre10-FPR1) (S. cerevisiae) (UniProt P21242). The experiment in a line: cell-based or functional assay.
Experiment [2] addresses Rpn10 proteasome subunit C-terminally fused with Fpr1 (strain Rpn10-FPR1) (S. cerevisiae) (UniProt P38886). The experiment in a line: cell-based or functional assay.

Pre10 proteasome subunit C-terminally fused with Fpr1 (strain Pre10-FPR1) (S. cerevisiae), sequence (P21242 other isoform, or with tags, fused parts or gaps): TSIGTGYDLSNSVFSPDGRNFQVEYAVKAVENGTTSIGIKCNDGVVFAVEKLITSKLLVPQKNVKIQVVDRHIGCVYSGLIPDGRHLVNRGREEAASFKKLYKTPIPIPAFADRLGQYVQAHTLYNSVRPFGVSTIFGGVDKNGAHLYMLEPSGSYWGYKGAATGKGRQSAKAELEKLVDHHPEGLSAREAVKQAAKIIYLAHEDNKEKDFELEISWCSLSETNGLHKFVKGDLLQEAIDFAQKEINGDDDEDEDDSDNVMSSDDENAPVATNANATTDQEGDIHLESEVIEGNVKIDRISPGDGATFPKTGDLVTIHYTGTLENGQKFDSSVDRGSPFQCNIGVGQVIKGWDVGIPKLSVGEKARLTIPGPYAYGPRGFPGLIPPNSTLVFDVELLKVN
Rpn10 proteasome subunit C-terminally fused with Fpr1 (strain Rpn10-FPR1) (S. cerevisiae), sequence (P38886 other isoform, or with tags, fused parts or gaps): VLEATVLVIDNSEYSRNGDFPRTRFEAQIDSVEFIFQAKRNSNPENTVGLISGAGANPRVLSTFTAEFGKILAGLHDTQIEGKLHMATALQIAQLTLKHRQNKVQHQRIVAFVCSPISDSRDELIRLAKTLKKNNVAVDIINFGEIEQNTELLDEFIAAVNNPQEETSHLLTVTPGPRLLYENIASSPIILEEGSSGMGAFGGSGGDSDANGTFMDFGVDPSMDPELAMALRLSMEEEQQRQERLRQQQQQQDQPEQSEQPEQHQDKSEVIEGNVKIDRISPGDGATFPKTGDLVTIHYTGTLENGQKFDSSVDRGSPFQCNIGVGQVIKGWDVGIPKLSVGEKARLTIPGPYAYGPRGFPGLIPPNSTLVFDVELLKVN

On to “HA epitope-tagged Tor-His3 expressed in yeast (p415-TOR-link-HIS3HA) (from UniProt P35169 1883-2078; P06633 1-220)”, for which the half-life of reporter degradation in vivo with rapamycin (cycloheximide chase, anti-HA Western) in experiment [1] and in experiment [2] was 20 to 30 min in each case.

(Values after patent publication US20050152888A1.)
